Data as given in patent US20100160556A1 (published 2010).
Changes are numbered by the printed parent chain. Each block holds one binder with its values, some of them ahead of it.

Biological target: GLP-1 receptor (on a GLP-1 receptor transfected CHO cell line)
Assay: cell-based or functional assay

ED50 relative to CM3 (GLP-1 bioassay, cAMP increase): ~5 times
B1: PEG-CM3-ANA08 (CM3-ANA08 conjugated to unbranched 40 kDa mPEG maleimido propionamide) (peptide)
peptide: HAEGTFTSDVSSYLEGQAAKEFIAWLVKGRGRRDFPEEVAIAEELGC
modifications: unbranched 40 kDa mPEG maleimido propionamide on the free thiol group of the C-terminal cysteine

IC50 (GLP-1 bioassay, cAMP increase): 187 µM
B2: CM3 (GLP-1(7-37)-IP2, murine IP2) (peptide)
peptide: HAEGTFTSDVSSYLEGQAAKEFIAWLVKGRGRRDFPEEVAIAEELG

IC50 (GLP-1 bioassay, cAMP increase): 159 µM
B3: CM3-ANA01 (peptide)
peptide: B2 peptide with R32A, R33A
